From patent publication US20230285582A1 (published 2023) come the findings set out here.

One may read the EC50 as the concentration giving half of the maximal effect.

The target in experiment [1] is T1, cynomolgus monkey (Macaca fascicularis) TfR1 (cynomolgus monkey (Macaca fascicularis), UniProt Q5RDH6 89-760 (Pongo abelii entry), limits assumed).
T1 construct: also called cTfR1; cyTfR1
T1 chain: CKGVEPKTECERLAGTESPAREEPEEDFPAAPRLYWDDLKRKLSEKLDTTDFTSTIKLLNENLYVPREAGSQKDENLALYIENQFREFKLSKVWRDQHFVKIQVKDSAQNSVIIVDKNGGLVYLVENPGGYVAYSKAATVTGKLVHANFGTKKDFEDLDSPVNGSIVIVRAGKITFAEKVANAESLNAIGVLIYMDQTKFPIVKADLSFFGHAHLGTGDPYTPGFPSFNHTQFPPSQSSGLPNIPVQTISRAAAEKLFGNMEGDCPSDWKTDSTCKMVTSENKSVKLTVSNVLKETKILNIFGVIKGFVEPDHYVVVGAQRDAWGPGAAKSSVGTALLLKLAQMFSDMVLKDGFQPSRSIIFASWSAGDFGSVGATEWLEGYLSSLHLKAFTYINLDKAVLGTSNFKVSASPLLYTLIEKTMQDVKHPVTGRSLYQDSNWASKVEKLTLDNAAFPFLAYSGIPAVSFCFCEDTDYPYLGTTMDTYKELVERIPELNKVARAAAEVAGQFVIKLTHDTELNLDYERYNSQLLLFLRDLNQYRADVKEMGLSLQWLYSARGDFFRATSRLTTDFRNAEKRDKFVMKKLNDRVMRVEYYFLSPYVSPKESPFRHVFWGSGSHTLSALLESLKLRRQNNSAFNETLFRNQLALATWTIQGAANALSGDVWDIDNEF
In words: ELISA, d0. On the procedure:
(§1) To measure binding of humanized anti-TfR antibodies to TfR1, ELISAs were conducted. High binding, black, flat bottom, 96 well plates (Corning# 3925) were first coated with 100 µL/well of recombinant huTfR1 at 1 µg/mL in PBS and incubated at 4° C. overnight. Wells were emptied and residual liquid was removed. Blocking was conducted by adding 200 µL of 1%BSA (w/w) in PBS to each well. Blocking was allowed to proceed for 2 hours at room temperature on a shaker at 300 rpm. After blocking, liquid was removed and wells were washed three times with 300 µL of TBST. Anti-TfR1 antibodies were then added in 0.5% BSA/TBST in triplicate in an 8 point serial dilution (dilution range 5 µg/mL- 5 ng/mL). A positive control and isotype controls were also included on the ELISA plate. The plate was incubated at room temperature on an orbital shaker for 60 minutes at 300 rpm, and the plate was washed three times with 300 µL of TBST. Anti-(H+L)IgG-A488 (1:500) (Invitrogen #A11013) was diluted in 0.5% BSA in TBST, and 100 µL was added to each well. The plate was then allowed to incubate at room temperature for 60 minutes at 300 rpm on orbital shaker. The liquid was removed and the plate was washed four times with 300 µL of TBST. Absorbance was then measured at 495 nm excitation and […] (with a 15 nm bandwidth) on a plate reader. Data was recorded and analyzed for EC₅₀. […] ELISA measurements were conducted using cynomolgus monkey (Macaca fascicularis) TfR1 (cTfR1) according to the same protocol described above for hTfR1, and results are shown in FIGS. 9B, 9D, and 9F.
Background: An ELISA detects its analyte on a solid surface through an enzyme-linked reagent.

The target of experiment [2] is T1, cynomolgus monkey (Macaca fascicularis) …. As to the kind of experiment: ELISA, d9 (after 9 days at 40 C).
The target is the same in experiment [3]. In words: ELISA, coated recombinant TfR1, unconjugated Fab. On the procedure: as §1
Experiment [4] shares this target. In words: ELISA, coated recombinant TfR1, Fab-ASO300 conjugate.
The target is the same in experiment [5]. In words: ELISA, Fab-ASO300 conjugate.

B1: humanized anti-TfR Fab 5H12 VH5 (C33Y)/Vk4 (Fab, V domains shown)
VH: QVQLVQSGAEVKKPGASVKVSCKASGYSFTDYYINWVRQAPGQGLEWMGWIYPGSGNTRYSERFKGRVTITRDTSASTAYMELSSLRSEDTAVYYCAREDYYPYHGMDYWGQGTLVTVSS
VL: DIVMTQSPDSLAVSLGERATINCRASESVDGYDNSFMHWYQQKPGQPPKLLIFRASNLESGVPDRFSGSGSGTDFTLTISSLQAEDVAVYYCQQSSEDPWTFGQGTKLEIKR
For B1, the EC50 is 3.3 nM in experiment [1], 0.26 nM in experiment [2] and 3.3 nM in experiment [3].

B2: humanized anti-TfR Fab 5H12 VH5 (C33Y)/Vk3 (Fab, V domains shown)
VH: QVQLVQSGAEVKKPGASVKVSCKASGYSFTDYYINWVRQAPGQGLEWMGWIYPGSGNTRYSERFKGRVTITRDTSASTAYMELSSLRSEDTAVYYCAREDYYPYHGMDYWGQGTLVTVSS
VL: DIVLTQSPDSLAVSLGERATINCRASESVDGYDNSFMHWYQQKPGQPPKLLIFRASNLESGVPDRFSGSGSRTDFTLTISSLQAEDVAVYYCQQSSEDPWTFGQGTKLEIKR
For the molecule B2, the EC50 amounted to 2.1 nM in experiment [1], 0.69 nM in experiment [2] and 2.1 nM in experiment [3].

B3: humanized anti-TfR Fab 5H12 VH5 (C33D)/Vk4 (Fab, V domains shown)
VH: QVQLVQSGAEVKKPGASVKVSCKASGYSFTDYDINWVRQAPGQGLEWMGWIYPGSGNTRYSERFKGRVTITRDTSASTAYMELSSLRSEDTAVYYCAREDYYPYHGMDYWGQGTLVTVSS
VL: DIVMTQSPDSLAVSLGERATINCRASESVDGYDNSFMHWYQQKPGQPPKLLIFRASNLESGVPDRFSGSGSGTDFTLTISSLQAEDVAVYYCQQSSEDPWTFGQGTKLEIKR
Consider B3, for which the EC50 in experiment [1] was found to be 3.5 nM; in experiment [2] it was 0.63 nM; in experiment [3], 3.5 nM.

B4: conjugate of humanized anti-TfR Fab 5H12 VH5 (C33Y)/Vk3 with DMPK-targeting oligonucleotide ASO300 (Fab, V domains shown)
VH: QVQLVQSGAEVKKPGASVKVSCKASGYSFTDYYINWVRQAPGQGLEWMGWIYPGSGNTRYSERFKGRVTITRDTSASTAYMELSSLRSEDTAVYYCAREDYYPYHGMDYWGQGTLVTVSS
VL: DIVLTQSPDSLAVSLGERATINCRASESVDGYDNSFMHWYQQKPGQPPKLLIFRASNLESGVPDRFSGSGSRTDFTLTISSLQAEDVAVYYCQQSSEDPWTFGQGTKLEIKR
modifications: ASO300 oligonucleotide attached through a cleavable Val-Cit linker (Formula (C)); residue and chain not stated
notes: also called 5H12 (VH5-C33Y/Vk3) conjugate
For B4, the EC50 in experiment [4] amounted to 2.3 nM.

B5: humanized anti-TfR Fab 3M12 VH3/Vk2 (Fab, V domains shown)
VH: QVQLQESGPGLVKPSQTLSLTCSVTGYSITSGYYWNWIRQPPGKGLEWMGYITFDGANNYNPSLKNRVSISRDTSKNQFSLKLSSVTAEDTATYYCTRSSYDYDVLDYWGQGTTVTVSS
VL: DIQMTQSPSSLSASVGDRVTITCRASQDISNFLNWYQQKPGQPVKLLIYYTSRLHSGVPSRFSGSGSGTDFTLTISSLQPEDFATYFCQQGHTLPYTFGQGTKLEIKR
As for B5, the values for the EC50 in experiment [1], in experiment [2] and in experiment [3] were 9.9 nM, 19.5 nM and 9.9 nM, respectively.

B6: anti-TfR Fab 3M12 VH4/Vk3 (Fab, V domains shown)
VH: QVQLQESGPGLVKPSQTLSLTCTVTGYSITSGYYWNWIRQPPGKGLEWIGYITFDGANNYNPSLKNRVSISRDTSKNQFSLKLSSVTAEDTATYYCTRSSYDYDVLDYWGQGTTVTVSS
VL: DIQMTQSPSSLSASVGDRVTITCRASQDISNFLNWYQQKPGQPVKLLIYYTSRLHSGVPSRFSGSGSGTDFTLTISSLQPEDFATYYCQQGHTLPYTFGQGTKLEIKR
For B6, in experiment [2], the EC50 stood at 16.4 nM.

B7: humanized anti-TfR Fab 3M12 VH4/Vk2 (Fab, V domains shown)
VH: QVQLQESGPGLVKPSQTLSLTCTVTGYSITSGYYWNWIRQPPGKGLEWIGYITFDGANNYNPSLKNRVSISRDTSKNQFSLKLSSVTAEDTATYYCTRSSYDYDVLDYWGQGTTVTVSS
VL: DIQMTQSPSSLSASVGDRVTITCRASQDISNFLNWYQQKPGQPVKLLIYYTSRLHSGVPSRFSGSGSGTDFTLTISSLQPEDFATYFCQQGHTLPYTFGQGTKLEIKR
Regarding B7, the EC50 in experiment [1] was found to be 1.4 nM; in experiment [2], 5.01 nM; in experiment [3], 1.4 nM.

B8: conjugate of humanized anti-TfR Fab 3M12 VH4/Vk3 with DMPK-targeting oligonucleotide ASO300 (Fab, V domains shown)
VH: QVQLQESGPGLVKPSQTLSLTCTVTGYSITSGYYWNWIRQPPGKGLEWIGYITFDGANNYNPSLKNRVSISRDTSKNQFSLKLSSVTAEDTATYYCTRSSYDYDVLDYWGQGTTVTVSS
VL: DIQMTQSPSSLSASVGDRVTITCRASQDISNFLNWYQQKPGQPVKLLIYYTSRLHSGVPSRFSGSGSGTDFTLTISSLQPEDFATYYCQQGHTLPYTFGQGTKLEIKR
modifications: ASO300 oligonucleotide attached through a cleavable Val-Cit linker (Formula (C)); residue and chain not stated
notes: also called 3M12 (VH4/Vk3) conjugate; DMPK oligo conjugate
B8: the EC50 in experiment [4] was found to be 2.1 nM; in experiment [5] it was 1.85 nM.

B9: humanized anti-TfR Fab 3M12 VH3/Vk3 (Fab, V domains shown)
VH: QVQLQESGPGLVKPSQTLSLTCSVTGYSITSGYYWNWIRQPPGKGLEWMGYITFDGANNYNPSLKNRVSISRDTSKNQFSLKLSSVTAEDTATYYCTRSSYDYDVLDYWGQGTTVTVSS
VL: DIQMTQSPSSLSASVGDRVTITCRASQDISNFLNWYQQKPGQPVKLLIYYTSRLHSGVPSRFSGSGSGTDFTLTISSLQPEDFATYYCQQGHTLPYTFGQGTKLEIKR
As for B9, the 50% effective concentration (EC50) in experiment [1] worked out at 4.7 nM; in experiment [2], 15.6 nM; in experiment [3], 4.7 nM.

B10: humanized anti-TfR Fab 3A4 VH3 (N54T)/Vk4 (Fab, V domains shown)
VH: EVQLVQSGSELKKPGASVKVSCTASGFNIKDDYMYWVRQPPGKGLEWIGWIDPETGDTEYASKFQDRVTVTADTSTNTAYMELSSLRSEDTAVYYCTLWLRRGLDYWGQGTLVTVSS
VL: DIVMTQSPLSLPVTPGEPASISCRSSKSLLHSNGYTYLFWFQQRPGQSPRLLIYRMSNLASGVPDRFSGSGSGTDFTLKISRVEAEDVGVYYCMQHLEYPFTFGGGTKVEIKR
B10: the EC50 amounted to 156 nM in experiment [1], 128 nM in experiment [2] and 156 nM in experiment [3].

B11: conjugate of humanized anti-TfR Fab 3A4 VH3/Vk4 with DMPK-targeting oligonucleotide ASO300 (Fab, V domains shown)
VH: EVQLVQSGSELKKPGASVKVSCTASGFNIKDDYMYWVRQPPGKGLEWIGWIDPENGDTEYASKFQDRVTVTADTSTNTAYMELSSLRSEDTAVYYCTLWLRRGLDYWGQGTLVTVSS
VL: DIVMTQSPLSLPVTPGEPASISCRSSKSLLHSNGYTYLFWFQQRPGQSPRLLIYRMSNLASGVPDRFSGSGSGTDFTLKISRVEAEDVGVYYCMQHLEYPFTFGGGTKVEIKR
modifications: ASO300 oligonucleotide attached through a cleavable Val-Cit linker (Formula (C)); residue and chain not stated
notes: also called 3A4 (VH3/Vk4) conjugate; DMPK oligo conjugate
Regarding B11, the 50% effective concentration (EC50) in experiment [4] stood at 7.6 nM; in experiment [5] it was 7.59 nM.

B12: conjugate of humanized anti-TfR Fab 3A4 VH3 (N54S)/Vk4 with DMPK-targeting oligonucleotide ASO300 (Fab, V domains shown)
VH: EVQLVQSGSELKKPGASVKVSCTASGFNIKDDYMYWVRQPPGKGLEWIGWIDPESGDTEYASKFQDRVTVTADTSTNTAYMELSSLRSEDTAVYYCTLWLRRGLDYWGQGTLVTVSS
VL: DIVMTQSPLSLPVTPGEPASISCRSSKSLLHSNGYTYLFWFQQRPGQSPRLLIYRMSNLASGVPDRFSGSGSGTDFTLKISRVEAEDVGVYYCMQHLEYPFTFGGGTKVEIKR
modifications: ASO300 oligonucleotide attached through a cleavable Val-Cit linker (Formula (C)); residue and chain not stated
notes: also called 3A4 (VH3-N54S/Vk4) conjugate; DMPK oligo conjugate
With B12, the EC50 in experiment [4] turned out to be 7.8 nM; in experiment [5] it was 4.1 nM.

B13: humanized anti-TfR Fab 3A4 VH3/Vk4 (Fab, V domains shown)
VH: EVQLVQSGSELKKPGASVKVSCTASGFNIKDDYMYWVRQPPGKGLEWIGWIDPENGDTEYASKFQDRVTVTADTSTNTAYMELSSLRSEDTAVYYCTLWLRRGLDYWGQGTLVTVSS
VL: DIVMTQSPLSLPVTPGEPASISCRSSKSLLHSNGYTYLFWFQQRPGQSPRLLIYRMSNLASGVPDRFSGSGSGTDFTLKISRVEAEDVGVYYCMQHLEYPFTFGGGTKVEIKR
For B13, the EC50 amounted to 122 nM in experiment [1], 878 nM in experiment [2] and 122 nM in experiment [3].

B14: humanized anti-TfR Fab 3A4 VH3 (N54S)/Vk4 (Fab, V domains shown)
VH: EVQLVQSGSELKKPGASVKVSCTASGFNIKDDYMYWVRQPPGKGLEWIGWIDPESGDTEYASKFQDRVTVTADTSTNTAYMELSSLRSEDTAVYYCTLWLRRGLDYWGQGTLVTVSS
VL: DIVMTQSPLSLPVTPGEPASISCRSSKSLLHSNGYTYLFWFQQRPGQSPRLLIYRMSNLASGVPDRFSGSGSGTDFTLKISRVEAEDVGVYYCMQHLEYPFTFGGGTKVEIKR
Consider B14, for which the 50% effective concentration (EC50) was found to be 398 nM in experiment [1], 248 nM in experiment [2] and 398 nM in experiment [3].
